From patent US20210317168

Target: purified MN gp120 (clade B), P05877

B1: Calcium-dependent serine protease, complement component 1s (C1s) of CHO cells (protein)
chain: EPTMHGEILSPNYPQAYPNEIEKTWDIEVPEGFGIRLYFTHLDMELSENCEYDSVQIISGGVEEGRLCGQRTSKNANSPIVEEFQMPYNKLQVIFRSDFSNEERFTGFAAYYAAVDINECTDFTDVPCSHFCNNFIGGYFCSCPPEYFLHDDMRNCGVNCSGNVFTALIGEISSPNYPSPYPENSRCEYQILLEEGFQVVVTIRREDFDVEPADSEGNCQDSLLFAAKNQLFGPYCGNGFPGPLTIETHSNTLDIVFQTDLTEQRKGWKLRYHGDPIPCPKEITANSVWVPEKAKYVFKDVVKISCVDGFEVVEGNVGSAFFYSTCQSNGQWSNSRLQCQPVDCGIPEPIQNGKVDDPENTVFGSVIQYSCEEPYYYMEHEEHGGEYRCAANGSWVNDELGIELPKCVPVCGVPTEPIALQQRIFGGFPAKIQSFPWQVFFESPRAGGALIDEYWVLTAAHVVEGNSDPSMYVGTTFVRMEHLANAQRLTAERVIIHPGWKPADDLETRTNFDNDIALVQLKDPVKMGPTVSPICLPGTSSEYNPSKNDLGLISGWGRTEKRNIVPQLKGAKLPVTSLEKCQQVKGENSKVRADDYVFTSNMICAGEKGVDSCQGDSGGAFALQVPNVKDPKFYVAGLVSWGKKCGTYGIYTKVKNYMDWIVKTMQENSVPSKD
- proteolysis of gp120 in 10x concentrated CHO supernatant, western blot, with or without EGTA: inhibition of proteolysis of gp120 in CHO cell supernatant with EGTA, a calcium-chelating agent suggested that C1s is the major protease responsible for gp120 cleavage
